Among the data in article doi:10.1101/2020.12.15.422916 are stoichiometry N values, retold here.

Experiment [1] deals with hexameric Aβ from CHO cells transfected with C99 carrying the Flemish (A21G) FAD mutation (human). As to the kind of experiment: SDS-PAGE and western blot of SDS-stable assemblies.
Experiment [2] deals with assembly-impaired variant of Aβ42 from CHO cells transfected with vC42 (F19S, G37D) (human). Description: SDS-PAGE and western blot of SDS-stable assemblies. For orientation: Immunoblotting shows a protein as a band on a membrane.
Experiment [3] has as its target hexameric Aβ from CHO cells transfected with C99 carrying the Arctic (E22G) FAD mutation (human). Description: SDS-PAGE and western blot of SDS-stable assemblies.
For experiment [4], the target named is hexameric Aβ from CHO cells transfected with C99 carrying the Iowa (D23N) FAD mutation (human). As to the kind of experiment: SDS-PAGE and western blot of SDS-stable assemblies.
Experiment [5] deals with hexameric Aβ from CHO cells transfected with C99 carrying the Dutch (E22Q) FAD mutation (human). As to the kind of experiment: SDS-PAGE and western blot of SDS-stable assemblies.
Experiment [6] addresses hexameric Aβ from CHO cells transfected with C99 carrying the Italian (E22K) FAD mutation (human). As to the kind of experiment: SDS-PAGE and western blot of SDS-stable assemblies.
Experiment [7] has as its target C99-derived hexameric Aβ42 (cell-derived, from CHO cells transfected with C99) (human) (UniProt P05067). Description: GELFrEE 8100 electrophoretic fractionation with western blot.
Experiment [8] shares this target. Description: SDS-PAGE and western blot of SDS-stable assemblies.

By stoichiometry N is commonly meant the number of molecules, sites or subunits per partner or assembly. With “hexameric Aβ from CHO cells transfected with C99 carrying the Flemish (A21G) FAD mutation (peptide)”, the stoichiometry N in experiment [1] amounted to 6.

For “assembly-impaired variant of Aβ42 from CHO cells transfected with vC42 (F19S, G37D) (peptide)”, in experiment [2], the stoichiometry N was 2.

Substance “hexameric Aβ from CHO cells transfected with C99 carrying the Arctic (E22G) FAD mutation (peptide)” registered a stoichiometry N in experiment [3] of 6.

As for “hexameric Aβ from CHO cells transfected with C99 carrying the Iowa (D23N) FAD mutation (peptide)”, the stoichiometry N in experiment [4] was 6.

In experiment [5], “hexameric Aβ from CHO cells transfected with C99 carrying the Dutch (E22Q) FAD mutation (peptide)” displayed a stoichiometry N of 6.

Regarding “hexameric Aβ from CHO cells transfected with C99 carrying the Italian (E22K) FAD mutation (peptide)”, the stoichiometry N in experiment [6] turned out to be 6.

Take “C99-derived hexameric Aβ42 (cell-derived, from CHO cells transfected with C99) (from UniProt P05067 672-770) (peptide)”: the stoichiometry N in experiment [7] and in experiment [8] was 6 throughout.
